In paper PMC12751603 (Journal of Experimental & Clinical Cancer Research : CR, 2025):
Positions count from the first letter of the chain named. Non-standard residues stand in square brackets, D forms with d. No end group written: not given here. pY = N[C@@H](Cc1ccc(OP(=O)(O)O)cc1)C(=O)O

Key:
GST-PTPN9 Y333A = target: T1, GST-PTPN9 Y333A (UniProt P43378 1-593, Y333A); experiment: cell-based or functional assay
T1 sequence (looked up): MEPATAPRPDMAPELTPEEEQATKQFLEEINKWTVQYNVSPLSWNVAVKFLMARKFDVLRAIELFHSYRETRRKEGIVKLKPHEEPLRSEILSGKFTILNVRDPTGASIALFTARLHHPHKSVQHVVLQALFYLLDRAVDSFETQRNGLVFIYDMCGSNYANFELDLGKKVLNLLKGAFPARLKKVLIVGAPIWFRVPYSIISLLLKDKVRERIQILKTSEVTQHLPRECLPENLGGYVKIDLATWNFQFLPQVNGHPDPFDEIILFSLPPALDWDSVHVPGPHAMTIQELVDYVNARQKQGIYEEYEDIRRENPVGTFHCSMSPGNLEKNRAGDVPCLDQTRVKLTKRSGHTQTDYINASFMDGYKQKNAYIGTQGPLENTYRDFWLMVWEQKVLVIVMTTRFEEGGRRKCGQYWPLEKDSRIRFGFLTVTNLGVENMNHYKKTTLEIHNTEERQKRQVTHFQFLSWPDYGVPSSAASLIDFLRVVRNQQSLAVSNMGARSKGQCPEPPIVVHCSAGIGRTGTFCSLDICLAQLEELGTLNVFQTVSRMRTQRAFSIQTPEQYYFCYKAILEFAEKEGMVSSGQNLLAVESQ

GST-PTPN9 D335A = target: T2, GST-PTPN9 D335A (UniProt P43378 1-593, D335A); experiment: cell-based or functional assay
T2 sequence (looked up): T1 sequence (looked up) with A333Y, D335A

**Q.** For IYETD[pY][pY]RKGGK [p-IGF1R^Y1165/1166 peptide], which “Kcat of phosphatase activity against the p-IGF1R^Y1165/1166 peptide” value (GST-PTPN9 Y333A) is on record?
**A.** 3.42 s⁻¹

**Q.** What about the “Kcat of phosphatase activity against the p-IGF1R^Y1165/1166 peptide” value (GST-PTPN9 D335A) of the same binder?
**A.** 1.78 s⁻¹
